The numbers were not newly measured in PMC4434180, which cites them from elsewhere.

In this data set the target is PriL (p58) NTD (Homo sapiens) (UniProt P49643).
Sequence of UniProt P49643 (P49643 1-253): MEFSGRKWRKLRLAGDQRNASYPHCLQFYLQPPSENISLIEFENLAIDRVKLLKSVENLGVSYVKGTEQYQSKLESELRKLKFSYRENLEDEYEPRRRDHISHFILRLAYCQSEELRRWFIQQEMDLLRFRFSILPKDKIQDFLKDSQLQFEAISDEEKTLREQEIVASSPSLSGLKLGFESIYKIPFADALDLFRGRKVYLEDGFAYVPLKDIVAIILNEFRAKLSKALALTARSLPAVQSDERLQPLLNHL

In general, Kd refers to the equilibrium constant for the complex coming apart. As to PriS (p49) (from UniProt P49642), the Kd is 0.46 nM.
